Assay results as given in patent US11147834B2 (MiZ Company Limited, priority 2018, dated 2021).

Assays:
[1] = tested on: (wet) age-related macular degeneration; assay: Case of a patient with (wet) age-related macular degeneration: hydrogen aspiration and hydrogen water, Lucentis and laser therapy; assay type: in vivo, human
Description: A patient felt itchiness on the left eye in September 2013, took their glasses off, and covered their left eye.
Lucentis (R) was injected in the vitreous body of the patient and the patient received laser therapy after 1 week. After additional 1 month, Lucentis (R) was re-injected.
After 10 months, the injection was discontinued and only a test was continued. Thereafter, the patient visited the hospital once in three months and their pathological conditions were checked by a test.
Then, the patient received the second laser therapy, and Lucentis (R) injection approximately once a month.
The doctor recommended that the patient receive another laser therapy if the result of injection in February was bad.
After that, the patient received Lucentis (R) injection. One week after the injection, detailed fundus examination was conducted to check their pathological conditions.
Then, the patient daily drank 500 ml/morning and 500 ml/night of the water for 1 month.
When the patient received Lucentis (R) injection on Apr. 11, 2018, their pathological conditions were checked. […] However, after one week, the patient was re-examined.

[2] = compared with H2; cited from earlier work

[HH] [hydrogen, molecular hydrogen]
visual acuity of the eye with age-related macular degeneration ([1]; after aspirating hydrogen and drinking hydrogen water, improved from 0.1): 1.2 | choroidal neovascularization (detailed fundus examination) ([1]; gaseous hydrogen about 4% by volume aspirated about 2 hours x 3 (7-day interval), February 2018, then Lucentis injection, examined one week after the injection): degeneration

[2H][2H] [D2, deuterium]
superoxide-scavenging action [2]: stronger superoxide-scavenging action than H2

B1: ranibizumab (antibody, chains of the INN, looked up, V domains shown)
VH: EVQLVESGGGLVQPGGSLRLSCAASGYDFTHYGMNWVRQAPGKGLEWVGWINTYTGEPTYAADFKRRFTFSLDTSKSTAYLQMNSLRAEDTAVYYCAKYPYYYGTSHWYFDVWGQGTLVTVSS
VL: DIQLTQSPSSLSASVGDRVTITCSASQDISNYLNWYQQKPGKAPKVLIYFTSSLHSGVPSRFSGSGSGTDFTLTISSLQPEDFATYYCQQYSTVPWTFGQGTKVEIK
modifications: Fab
notes: an anti-VEGF drug, ranibizumab; Novartis Pharma K. K
effects of laser therapy and Lucentis injection ([1]; during three years before initiation of hydrogen gas inhalation): no effects | therapeutic effect ([1]; first course: intravitreal injection, laser therapy after 1 week, re-injection after additional 1 month): therapeutic effect appeared | test result after injection ([1]; injection in January 2018): very bad | treatment outcome ([1]; same treatment repeated two years later after worsening): not good
